Measured values reported in publication PMC3294125.

Key:
Assay in all cases: kinetics
Asp26 = Asp26 (UniProt position 26, FMSTNDKDIGV); details: Continuous catalytic turnover
Cys139 = Cys139 (UniProt position 139, AFPRMCNLSYW); details: Continuous catalytic turnover; cited from earlier work
Asp139 = Asp139 (UniProt position 139, AFPRMDNLSYW); details: Continuous catalytic turnover; cited from earlier work
Asp132 = Asp132 (UniProt position 132, HIGAPDMAFPR); details: Continuous catalytic turnover; cited from earlier work

Question: With “Cytochrome c oxidase (aa3-type), subunit I H26D-D132A, subunit III-depleted (Rhodobacter sphaeroides; H26D;D132A)” as the substance, how does the pKa (Asp26) read?
Answer: 7.0 (6.9–7.1)

Question: For “Cytochrome c oxidase (aa3-type), subunit I N139C-D132N, subunit III-depleted (Rhodobacter sphaeroides; N139C;D132N)”, which pKa (Cys139) is on record?
Answer: 8.0 (7.9–8.1)

Question: For “Cytochrome c oxidase (aa3-type), subunit I N139D-D132N, subunit III-depleted (Rhodobacter sphaeroides; N139D;D132N)”, which pKa (Asp139) is on record?
Answer: 7.7 (7.5–7.9)

Question: With “Cytochrome c oxidase (aa3-type), subunit I, in subunit III-depleted enzyme [WT III (−)] (Rhodobacter sphaeroides)” as the substance, how does the pKa (Asp132) read?
Answer: 7.0–7.3
